Data on 34 molecules can be found in US20070092518A1 (published 2007).

Where a chain is given by its changes, count along the chain named.

The labels stand for the following.
B1: SEQ ID NO 121 (Fab, V domains shown)
VH: EVQLVESGGGLVQPGGSLRLSCAASQFTFSNHYMNWVRQAPGKGLEWIGEIRSKSINSATHYAESVKGRFIISRDDNGNDLYLEMNSLKTEDTAEYYCAQNYYGSTYDYWGQGTLVTVS
VL: EIVLTQSPDFQSVTPKEKVTITCRASQFVGSSIHWYQQKPDQSPKLLIKYASESMSGVPSRFSGSGSGTDFTFTISSLEAEDAATYYCQQSHSWPFTFGPGTKVDIK
notes: Fab, E. coli lysate
B2: SEQ ID NO 42 (Fab, V domains shown)
VH: B1 VH with Q26G, I56S, N57Y, H61S, G78K, D80S, Y82T, Q100R, Y107P
VL: B1 VL
notes: Fab, E. coli lysate
B3: SEQ ID NO 49 (Fab, V domains shown)
VH: B1 VH with V5T, T28I, Y33W, I56S, N57Y, S58G, D76G, D80S
VL: B1 VL
notes: Fab, E. coli lysate
B4: SEQ ID NO 27 (Fab, V domains shown)
VH: B1 VH with T28I, I56S, S58G, G78K, Y107P
VL: B1 VL
notes: Fab, E. coli lysate
B5: SEQ ID NO 7 (Fab, V domains shown)
VH: B1 VH with V5T, Y33W, I56S, G78K, N79T
VL: B1 VL
notes: Fab, E. coli lysate
B6: SEQ ID NO 5 (Fab, V domains shown)
VH: B1 VH with V5T, Y33W, G78K, D80S, Y82T, Q100R
VL: B1 VL
notes: Fab, E. coli lysate
B7: SEQ ID NO 25 (Fab, V domains shown)
VH: B1 VH with A23R, T28I, D76G, G78K, N79T, D80S, Y107P
VL: B1 VL
notes: Fab, E. coli lysate
B8: SEQ ID NO 44 (Fab, V domains shown)
VH: B1 VH with V5T, Q26G, Y33W, I56S, N57Y, G78K, N79T, Y82T, Q100R
VL: B1 VL
notes: Fab, E. coli lysate
B9: SEQ ID NO 21 (Fab, V domains shown)
VH: B1 VH with V5T, Y33W, N57Y, S58G, Q100R
VL: B1 VL
notes: Fab, E. coli lysate
B10: SEQ ID NO 24 (Fab, V domains shown)
VH: B1 VH with V5T, Q26G, F27S, T28I, Y33W, S58G, H61S, D80S, Y82T, Y107P
VL: B1 VL
notes: Fab, E. coli lysate
B11: SEQ ID NO 36 (Fab, V domains shown)
VH: B1 VH with N57Y, S58G, H61S, N79T, D80S, Q100R
VL: B1 VL
notes: Fab, E. coli lysate
B12: SEQ ID NO 52 (Fab, V domains shown)
VH: EVQLVESGGGLVQPGGSLRLSCRASGSIFSNHWMNWVRQAPGKGLEWIGEIRSKSSYSATHYAESVKGRFIISRDGNGNSLTLEMNSLKTEDTAEYYCARNYYGSTYDYWGQGTLVTVS
VL: B1 VL
notes: Fab, E. coli lysate
B13: SEQ ID NO 26 (Fab, V domains shown)
VH: B1 VH with A23R, N57Y, G78K, Y82T, Q100R
VL: B1 VL
notes: Fab, E. coli lysate
B14: SEQ ID NO 10 (Fab, V domains shown)
VH: B1 VH with V5T, A23R, Q26G, T28I, H61S, G78K, Y82T, Q100R
VL: B1 VL
notes: Fab, E. coli lysate
B15: SEQ ID NO 8 (Fab, V domains shown)
VH: B1 VH with V5T, A23R, Q26G, F27S, S58G, D76G
VL: B1 VL
notes: Fab, E. coli lysate
B16: SEQ ID NO 18 (Fab, V domains shown)
VH: B12 VH with G26Q, S27F, I28T, W33Y, Y57N, S58G, H61S
VL: B1 VL
notes: Fab, E. coli lysate
B17: SEQ ID NO 57 (Fab, V domains shown)
VH: B12 VH with V5T, R23A, S27F, G76D, N79T, T82Y, R100Q
VL: B1 VL
notes: Fab, E. coli lysate
B18: SEQ ID NO 20 (Fab, V domains shown)
VH: B1 VH with A23R, Q26G, I56S, H61S, Y82T, Y107P
VL: B1 VL
notes: Fab, E. coli lysate
B19: SEQ ID NO 45 (Fab, V domains shown)
VH: B12 VH with S27F, S56I, S80D, Y107P
VL: B1 VL
notes: Fab, E. coli lysate
B20: SEQ ID NO 14 (Fab, V domains shown)
VH: B1 VH with V5T, Y33W, N57Y, S58G, D76G, Q100R, Y107P
VL: B1 VL
notes: Fab, E. coli lysate
B21: SEQ ID NO 23 (Fab, V domains shown)
VH: B12 VH with V5T, R23A, S56I, S58G, G76D, N79T, S80D, T82Y
VL: B1 VL
notes: Fab, E. coli lysate
B22: SEQ ID NO 4 (Fab, V domains shown)
VH: B12 VH with V5T, S27F, H61S, G76D, G78K, N79T, T82Y, R100Q
VL: B1 VL
notes: Fab, E. coli lysate
B23: SEQ ID NO 46 (Fab, V domains shown)
VH: B12 VH with I28T, W33Y, S58G, H61S, S80D, T82Y, R100Q, Y107P
VL: B1 VL
notes: Fab, E. coli lysate
B24: SEQ ID NO 22 (Fab, V domains shown)
VH: B12 VH with I28T, Y57N, G76D, R100Q
VL: B1 VL
notes: Fab, E. coli lysate
B25: SEQ ID NO 17 (Fab, V domains shown)
VH: B12 VH with V5T, S27F, I28T, G76D, G78K, N79T, T82Y, Y107P
VL: B1 VL
notes: Fab, E. coli lysate
B26: SEQ ID NO 43 (Fab, V domains shown)
VH: B12 VH with S56I, Y57N, S58G, H61S, G76D, R100Q, Y107P
VL: B1 VL
notes: Fab, E. coli lysate
B27: SEQ ID NO 54 (Fab, V domains shown)
VH: B12 VH with V5T, R23A, W33Y, S56I, S58G, H61S, T82Y, R100Q, Y107P
VL: B1 VL
notes: Fab, E. coli lysate
B28: SEQ ID NO 28 (Fab, V domains shown)
VH: B12 VH with R23A, I28T, S58G, H61S, R100Q, Y107P
VL: B1 VL
notes: Fab, E. coli lysate
B29: SEQ ID NO 51 (Fab, V domains shown)
VH: B12 VH with V5T, S27F, W33Y, H61S, G78K, S80D
VL: B1 VL
notes: Fab, E. coli lysate
B30: SEQ ID NO 40 (Fab, V domains shown)
VH: B1 VH with Q26G, F27S, H61S, D76G, N79T, D80S, Q100R
VL: B1 VL
notes: Fab, E. coli lysate
B31: SEQ ID NO 31 (Fab, V domains shown)
VH: B1 VH with V5T, T28I, I56S, N57Y, S58G, D76G, G78K, N79T, Y82T
VL: B1 VL
notes: Fab, E. coli lysate
B32: SEQ ID NO 13 (Fab, V domains shown)
VH: B1 VH with V5T, Q26G, F27S, T28I, I56S, G78K, N79T, Q100R
VL: B1 VL
notes: Fab, E. coli lysate
B33: SEQ ID NO 11 (Fab, V domains shown)
VH: B1 VH with V5T, Q26G, T28I, Y33W, S58G, H61S, G78K, N79T, D80S
VL: B1 VL
notes: Fab, E. coli lysate
B34: SEQ ID NO 33 (Fab, V domains shown)
VH: B12 VH with W33Y, Y57N, S58G, G76D, G78K, T82Y
VL: B1 VL
notes: Fab, E. coli lysate

T1 sequence (P01375 77-233 limits assumed): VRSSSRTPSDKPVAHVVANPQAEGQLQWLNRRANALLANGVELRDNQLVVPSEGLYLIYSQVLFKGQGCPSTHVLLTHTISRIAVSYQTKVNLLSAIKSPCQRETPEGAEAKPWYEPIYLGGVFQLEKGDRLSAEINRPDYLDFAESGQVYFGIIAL

The assay concerns the target T1, human tumor necrosis factor-α (rHuTNF-alpha, Biosource) (human, UniProt P01375 77-233).
T1 construct: Bought recombinant protein coated on ELISA plates; The TNFα of the Biacore assay is not described further; also called TNFα; human TNFα
The assay can be described thus: solid-phase ELISA, Fab lysate on coated rHuTNF-alpha. The procedure:
The Fab libraries were cloned into pTrcHis2A (Cat. No. V365-20, Invitrogen, Carlsbad, Calif.). Proteins were expressed in E. coli and solid-phase ELISA was used to assess Fab binding to human TNFα. Briefly, 96-well plates were coated overnight at 4° C. with 1 μg/ml of rHuTNF-alpha (Biosource, Camarillo, Calif.) in Carbonate-bicarbonate buffer, pH9.4. After washing in PBS with 0.05% (w/v) Tween-20, the wells were blocked with 1% (w/v) BSA in PBS for 1 hour at room temperature. After washing, plates were incubated with transformed E. coli cell lysate diluted in the assay buffer (1% BSA and 0.05% Tween-20 in 10 mM PBS) for 2 hours at room temperature. Various concentrations of infliximab (0.5, 1 and 2 ng/ml) were used as positive anti-Human Kappa Light Chain Biotin/anti-penta-His Biotin control. Plates were washed and incubated with ImmunoPure Goat Anti-Human Kappa Chain, Biotin Conjugated (Cat. No. 31780, Pierce Biotechnology, Rockford, Ill.) and Penta-His Biotin Conjugate (Cat. No. 34440, QIAGEN, Valencia, Calif.) diluted 1:2000 in the assay buffer for 1 hour at room temperature. Following another washing step, plates were probed for 1 hour at room temperature with 100 μL/well of Streptavidin POD (Cat. No. 1089153, Roche Applied Science, Indianapolis, Ind.) diluted 1:4000 in the assay buffer. Plates were further washed and then incubated with 3,3′,5,5′-tetramentylbenzidine (TMB, Cat. No. 34028, Pierce Biotechnology) for 30 minutes. Substrate development was stopped by addition of 100 μL/well TMB Stop Solution (Cat. No. 50-85-05, KPL, Gaithersburg, Md.) and the absorbance was measured at 450 nm via an automated plate spectrophotometer.
Background: In an ELISA, binding on a coated surface is turned into a signal by an enzyme label.
With B1, the binding result is recorded as “binds”.
With B2 the entry was “binds”; with B3, “binds”.
B4: the binding result is “binds”.
The entry for B5 is “binds”; for B6 it is “binds”.
The entry for B7 is “binds”.
The entry for B8 is “binds”; for B9 it is “binds”; for B10 it is “binds”.
In the case of B11, the binding result is reported as “binds”.
Regarding B12, the binding result is “binds”.
As to B13, the binding result is listed as “binds”.
With B14 the entry was “binds”; with B15, “binds”.
With B16, the binding result was “binds”.
B17: the binding result is “binds”.
With B18 the entry was “binds”.
With B19 the entry was “binds”; with B20, “binds”; with B21, “binds”.
For B22, the binding result is “binds”.
The entry for B23 is “binds”.
The entry for B24 is “binds”.
Take B25: the binding result is listed as “binds”.
The entry for B26 is “binds”.
The entry for B27 is “binds”; for B28 it is “binds”.
On to B29, for which the binding result was “binds”.
Take B30: the binding result is reported as “binds”.
The entry for B31 is “binds”.
Regarding B32, the binding result is “binds”.
On to B33, for which the binding result was “binds”.
With B34 the entry was “binds”.
